Source: article PMC12278352, “Characterization of DnaB–DnaG Interaction in M. tuberculosis Using Small‐Angle X‐ray Scattering‐Based Dissociation Assay” (Chembiochem, 2025)

B1: M. tuberculosis DnaG without the zinc-binding domain (DnaGΔZBD, amino acids 115-639) (domain or fragment)
chain: SRLLAANAAAAAFYAQALQSDEAAPARQYLTERSFDAAAARKFGCGFAPSGWDSLTKHLQRKGFEFEELEAAGLSRQGRHGPMDRFHRRLLWPIRTSAGEVVGFGARRLFDDDAMEAKYVNTPETLLYKKSSVMFGIDLAKRDIAKGHQAVVVEGYTDVMAMHLAGVTTAVASCGTAFGGEHLAMLRRLMMDDSFFRGELIYVFDGDEAGRAAALKAFDGEQKLAGQSFVAVAPDGMDPCDLRLKCGDAALRDLVARRTPLFEFAIRAAIAEMDLDSAEGRVAALRRCVPMVGQIKDPTLRDEYARQLAGWVGWADVAQVIGRVRGEAKRTKHPRLGRLGSTTIARAAQRPTAGPPTELAVRPDPRDPTLWPQREALKSALQYPALAGPVFDALTVEGFTHPEYAAVRAAIDTAGGTSAGLSGAQWLDMVRQQTTSTVTSALISELGVEAIQVDDDKLPRYIAGVLARLQEVWLGRQIAEVKSKLQRMSPIEQGDEYHALFGDLVAMEAYRRSLLEQASGDDLTA

Tests used:
[1] = target: DnaG-binding domain of M. tuberculosis DnaB helicase (DnaBn, amino acids 23-166) (M. tuberculosis) (UniProt P9WMR3); experiment: cross-linking; 4 μM DnaGΔZBD with DnaBn (0-15.9 μM), 0.045% glutaraldehyde, 40 mM HEPES pH 7.5, 150 mM NaCl, 10 mM MgCl2, 0.1 mM EDTA, 1 mM DTT, 25 min at 25 °C; SDS-PAGE, Coomassie
SAXS = target: the molecule itself; experiment: SAXS
[2] = target: the molecule itself; experiment: cross-linking; 4 μM DnaGΔZBD with 0.011-0.25% glutaraldehyde, 40 mM HEPES pH 7.5, 150 mM NaCl, 1 mM DTT, 0.1 mM EDTA, 0.5% DMSO, 30 min at 25 °C; SDS-PAGE, Coomassie
[3] = target: DnaG-binding domain of M. tuberculosis DnaB helicase (DnaBn, amino acids 23-166) (M. tuberculosis) (UniProt P9WMR3); experiment: SPR; DnaBn (2.4 μg) immobilised on a GLC chip by amine coupling; soluble DnaGΔZBD 0-600 nM, 30 μL/min; 25 °C; 40 mM HEPES pH 7.5, 200 mM NaCl, 0.1 mM EDTA, 1 mM DTT; steady-state fit; normalised to a BSA channel; three repeats

Molecule	stoichiometry N [1]	stoichiometry N (SAXS)	monomer:dimer ratio at 0.25% glutaraldehyde [2] [monomer per dimer]	Kd [3] [nM]
DnaG-binding domain of M. tuberculosis DnaB helicase (DnaBn, amino acids 23-166) (from UniProt P9WMR3 23-166) (domain or fragment)	2	–	–	–
B1	–	2	~1.5	210
